From the supplement of paper PMC9732359
± gives the uncertainty stated by the source.

Assay: protein stability index of a GFP-peptide fusion (yeast GPS) (PSI 1-4); higher = more stable; sorted into four equal gates, so the index is relative within each strain
Method in brief: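 Tiled 17-residue peptides from yeast proteins were fused downstream of GFP on a plasmid that also expresses Cherry, and the pooled library was carried in yeast. Mid-log cultures grown in leucine-free medium were sorted into four equal gates by GFP/Cherry fluorescence ratio. Plasmids from each gate were PCR-amplified and Illumina-sequenced, and reads were assigned to strains by barcodes. Each peptide's protein stability index is the sum, over gates, of the gate's read frequency multiplied by its gate number.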

Sequence | protein stability index (doa10∆) | protein stability index (pdr5∆) | protein stability index (san1∆) | protein stability index (ubr1∆)
SYYDNDLDETTQTFNGS [YML031W/NDC1] | 2.77 ± 0.043 | 2.78 ± 0.033 | 2.66 ± 0.038 | 2.81 ± 0.033
LMRSCFYLMVSSLSFGP [YJL039C/NUP192] | 1.64 ± 0.04 | 1.48 ± 0.04 | 1.76 ± 0.075 | 1.19 ± 0.033
YVDPETTYTYQQPNPLQ [ROX3] | 2.33 ± 0.087 | 2.31 ± 0.099 | 2.02 ± 0.12 | 2.86 ± 0.12
DDNDVPGPLPDTDSKPS [YLR018C/POM34] | 2.9 ± 0.12 | 2.98 ± 0.084 | 2.76 ± 0.11 | 2.38 ± 0.13
WLEEYHPKLIKNKSGKI [FAS1] | 1.59 ± 0.12 | 1.83 ± 0.075 | 1.42 ± 0.092 | 1.67 ± 0.046
RETLVKTWEKVTLDFGN [SMC2] | 1.77 ± 0.063 | 1.74 ± 0.14 | 1.83 ± 0.28 | 1.27 ± 0.12
QSKKLIEEKLSSFSKKT [YIL149C/MLP2] | 2.9 ± 0.056 | 3 ± 0.049 | 2.98 ± 0.053 | 3.02 ± 0.045
STVASALDTNGTSATTE [SIR4] | 2.2 ± 0.075 | 2.15 ± 0.065 | 2.91 ± 0.064 | 1.88 ± 0.045
NEQEEKSEEVKAEDDTG [RPC37] | 3.2 ± 0.17 |  | 2.94 ± 0.2 | 2.85 ± 0.17
KQGFVIYRVRVRRGNRK [RPL15A] | 1.17 ± 0.13 | 1.96 ± 0.11 | 1.29 ± 0.26 | 2.26 ± 0.089
GHDADDGYQLFHAEPSG [PUP2] | 3.37 ± 0.19 | 2.97 ± 0.18 | 3.42 ± 0.079 | 3.1 ± 0.14
RKVREQEELKKRQELEE [MED2] | 1.86 ± 0.039 | 2.36 ± 0.048 | 1.96 ± 0.1 | 2.55 ± 0.033
LMMVEKVPDSTYDMVGG [RPT6] | 2.6 ± 0.081 | 2.98 ± 0.071 | 2.84 ± 0.069 | 3.01 ± 0.068
QHQRIVAFVCSPISDSR [RPN10] | 1.92 ± 0.097 | 3.12 ± 0.11 | 1.48 ± 0.15 | 2.3 ± 0.16
VIKRLEASTVPWGDYLQ [BRR2] | 1.63 ± 0.15 | 1.24 ± 0.11 | 1.54 ± 0.11 | 1.35 ± 0.11
LIIDGQIIFGVVEKKTV [RPO21] | 1.37 ± 0.087 | 1.38 ± 0.065 | 1.2 ± 0.2 | 1.54 ± 0.07
AEKFVPIDIFQIIRRVK [SIR3] | 1.57 ± 0.28 | 1.46 ± 0.15 |  | 1.16 ± 0.2
TTGSIFEKDLMAYFDEN [BRN1] | 2.83 ± 0.055 | 3.15 ± 0.055 | 3.17 ± 0.043 | 3.13 ± 0.033
AGLTRSDRSLSEDLFAD [BRR2] | 3.04 ± 0.26 |  | 3.56 ± 0.2 | 
ITFLIEKAKEMIRLLGS [ECM29] | 2.6 ± 0.12 | 2.26 ± 0.1 | 2.9 ± 0.11 | 1.7 ± 0.12
SETDLNDIPLGSGQPDN [SRB8] | 3.09 ± 0.11 | 3.12 ± 0.069 | 3.06 ± 0.07 | 2.87 ± 0.056
EYYAKKRAFTKKVASAN [RPL16A] | 2.06 ± 0.081 | 1.7 ± 0.063 | 1.69 ± 0.11 | 1.57 ± 0.059
QKEQNVNNRDSEKGFSK [YCS4] | 2.91 ± 0.071 | 3.11 ± 0.063 | 2.41 ± 0.061 | 2.97 ± 0.036
DSILNYAKSEFDNVASV [ECM29] | 3.22 ± 0.11 | 3.14 ± 0.15 | 3.04 ± 0.087 | 3.15 ± 0.18
NKLDEYHGLYTNYEMSY [LIN1] | 1.56 ± 0.065 | 1.78 ± 0.059 | 1.78 ± 0.093 | 1.6 ± 0.068
MKYIQTEQQIEIPEGVT [RPL9B] | 2.4 ± 0.059 | 2.8 ± 0.063 | 2.39 ± 0.064 | 2.64 ± 0.053

Sequence | protein stability index (doa10∆) | protein stability index (pdr5∆) | protein stability index (san1∆) | protein stability index (ubr1∆)
LDSMIELFKDYKPGSIT [MED1] | 2.15 ± 0.074 | 1.94 ± 0.047 | 1.82 ± 0.1 | 1.99 ± 0.052
DTVSWFKQKYDADVLDK [RPL11A] | 2.06 ± 0.044 | 1.74 ± 0.044 | 1.64 ± 0.077 | 1.97 ± 0.039
SAIVNEDGLLEGLDELP [SOH1] | 2.95 ± 0.14 | 3.24 ± 0.082 | 2.78 ± 0.15 | 2.8 ± 0.12
SSYEEFLERFDFYTRHH [ITC1] | 3.19 ± 0.13 | 3.1 ± 0.083 | 3.03 ± 0.073 | 3.1 ± 0.081
ELSEEKYIVKASSGPRY [RPT4] | 2.66 ± 0.21 | 2.72 ± 0.17 | 3.21 ± 0.098 | 2.41 ± 0.18
TAEAPTLSFNFSQKANK [YOR098C/NUP1] | 3.27 ± 0.081 | 3.27 ± 0.086 | 3.24 ± 0.056 | 3.26 ± 0.085
GALVDRTQPWSIMPDLY [RPS0A] | 2.71 ± 0.09 | 2.82 ± 0.091 | 2.87 ± 0.062 | 3.11 ± 0.032
DLEWQELTSFSSQPLEP [DSN1] | 3.05 ± 0.054 | 3.05 ± 0.053 | 2.98 ± 0.054 | 2.98 ± 0.036
INFERIDEVFSWYLNTF [GRR1] | 2.22 ± 0.058 | 1.91 ± 0.044 | 2.51 ± 0.1 | 1.82 ± 0.051
TRKILEILNECHDELKA [MED4] | 2.04 ± 0.071 | 2.5 ± 0.13 | 2.44 ± 0.085 | 2.71 ± 0.097
PISEKGLTLSTTNLDID [RPP1] | 2.82 ± 0.052 | 2.92 ± 0.041 | 3.05 ± 0.034 | 2.9 ± 0.049
APTPAAPGASVPATAAP [SWI1] | 2.93 ± 0.068 | 3.05 ± 0.054 | 3.11 ± 0.042 | 3.21 ± 0.05
LANLIRDALRNIKNTNE [RRP6] | 2.37 ± 0.045 | 2.51 ± 0.055 | 2.63 ± 0.055 | 2.49 ± 0.036
FVSRPDRTMLAPMDFAI [FAS1] | 2.68 ± 0.12 | 2.82 ± 0.11 | 2.63 ± 0.11 | 2.68 ± 0.11
FKQKLNELLKCKDDVQL [MTW1] | 2.93 ± 0.054 | 2.96 ± 0.049 | 2.87 ± 0.036 | 3 ± 0.039
NSNQQQNPKLFQTIFSK [SIN4] | 1.98 ± 0.093 | 2.19 ± 0.069 | 3.11 ± 0.1 | 2.42 ± 0.082
FLLLAVNKYGLRADKLY [ISW2] | 3.05 ± 0.078 | 2.5 ± 0.075 | 2.62 ± 0.055 | 2.93 ± 0.059
FHFRAPSRIFYKALRGM [RPL16A] | 1.97 ± 0.24 | 2.4 ± 0.18 | 2.27 ± 0.14 | 2.43 ± 0.14
SFGTANTNGTNASANST [YOR098C/NUP1] | 3.04 ± 0.11 | 3.02 ± 0.11 | 2.75 ± 0.15 | 2.85 ± 0.12
VDPVYKDVAKPTGPKTA [FAS2] | 2.99 ± 0.096 | 3.05 ± 0.1 | 2.52 ± 0.08 | 2.34 ± 0.069
VLHVSAKGKSGVQTAYI [RRP40] | 2.48 ± 0.23 |  |  | 2.91 ± 0.24
PAFSNSNGFNNVTFGSK [YMR153W/NUP53] | 2.68 ± 0.054 | 2.96 ± 0.067 | 3.1 ± 0.037 | 3.13 ± 0.048
PSSEVYSPIEKESPWKI [RRP6] | 2.87 ± 0.15 | 3.03 ± 0.1 | 2.82 ± 0.12 | 3.29 ± 0.11
TASFIPLDTIETELPTL [SMC1] | 2.58 ± 0.066 | 2.65 ± 0.078 | 2.56 ± 0.066 | 2.53 ± 0.051
WRQFGNRMQISPDQMRN [GRR1] | 3.07 ± 0.12 | 3.14 ± 0.12 | 2.89 ± 0.11 | 2.75 ± 0.11
VQMDKIRKIVRKDENQF [AAR2] | 3.25 ± 0.17 | 2.81 ± 0.18 |  | 
